Experimental data taken from paper PMC3892784 (mBio, 2013).

T1: FrgB (Myxococcus xanthus (strain DZ2 genomic …, UniProt Q9RF10 1-510))
T1 sequence (looked up): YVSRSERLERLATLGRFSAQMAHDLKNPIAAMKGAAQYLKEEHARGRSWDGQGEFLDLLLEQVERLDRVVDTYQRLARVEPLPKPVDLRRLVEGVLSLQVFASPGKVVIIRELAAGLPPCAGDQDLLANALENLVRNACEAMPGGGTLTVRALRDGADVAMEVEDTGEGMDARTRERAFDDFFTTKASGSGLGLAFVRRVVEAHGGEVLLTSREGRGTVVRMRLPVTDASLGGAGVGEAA

T2: HK1190 (Myxococcus xanthus (strain DZ2 genomic …, UniProt Q1DD24 1-424))
T2 sequence (looked up): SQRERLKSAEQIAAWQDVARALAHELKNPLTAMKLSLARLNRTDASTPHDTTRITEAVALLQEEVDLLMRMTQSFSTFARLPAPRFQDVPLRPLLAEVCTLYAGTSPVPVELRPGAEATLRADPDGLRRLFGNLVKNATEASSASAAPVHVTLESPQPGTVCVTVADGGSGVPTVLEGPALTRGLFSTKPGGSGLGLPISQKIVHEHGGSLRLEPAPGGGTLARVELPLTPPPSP

T3: T. maritima HK853 (T. maritima, UniProt Q9WZV7 232-489)
T3 sequence (looked up): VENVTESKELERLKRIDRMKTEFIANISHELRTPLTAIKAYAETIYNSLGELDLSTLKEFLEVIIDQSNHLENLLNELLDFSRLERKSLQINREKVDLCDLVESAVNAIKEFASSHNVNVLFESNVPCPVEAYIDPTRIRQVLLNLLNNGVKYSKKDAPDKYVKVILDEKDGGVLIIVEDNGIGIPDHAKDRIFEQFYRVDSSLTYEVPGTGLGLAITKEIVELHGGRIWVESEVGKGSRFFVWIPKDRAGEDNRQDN

T4: CrdA (Myxococcus xanthus (strain DZ2 genomic …, UniProt Q84I63 1-498))
T4 sequence (looked up): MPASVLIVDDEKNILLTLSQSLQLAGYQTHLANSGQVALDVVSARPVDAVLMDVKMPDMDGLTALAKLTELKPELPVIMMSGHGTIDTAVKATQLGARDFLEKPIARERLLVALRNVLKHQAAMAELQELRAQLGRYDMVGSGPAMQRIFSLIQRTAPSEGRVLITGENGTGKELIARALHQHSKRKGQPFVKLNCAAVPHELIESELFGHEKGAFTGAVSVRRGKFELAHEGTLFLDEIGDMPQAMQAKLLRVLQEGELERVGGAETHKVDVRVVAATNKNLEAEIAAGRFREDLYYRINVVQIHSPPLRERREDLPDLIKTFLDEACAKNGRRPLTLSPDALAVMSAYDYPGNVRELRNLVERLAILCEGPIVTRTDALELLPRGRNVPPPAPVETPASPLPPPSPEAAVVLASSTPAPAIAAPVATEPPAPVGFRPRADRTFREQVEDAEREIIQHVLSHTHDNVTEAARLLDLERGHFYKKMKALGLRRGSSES

B1: T. maritima RR468 (natural protein, UniProt Q9WYT9 1-122, looked up)
chain: MSKKVLLVDDSAVLRKIVSFNLKKEGYEVIEAENGQIALEKLSEFTPDLIVLDIMMPVMDGFTVLKKLQEKEEWKRIPVIVLTAKGGEEDESLALSLGARKVMRKPFSPSQFIEEVKHLLNE
B2: NtrC1189 (domain or fragment, UniProt Q1DD25 1-450, looked up)
chain: MKPGPRILIVDDDSGVLRALRGLLSDEGFTPVEARSAAEASQLLDAPEGPPAMMLLDLRMPGETGLELLARLPRPFPAPVVVLSGEASPAEAVQALRLGATDFVEKPPSPERLLTAVRNALALGS
B3: FrgC (domain or fragment, UniProt Q9RF09 1-466, looked up)
chain: MNESLRGTVLLVDDDPAVAKVLGALLTQAGLTTHAARDGQEALALLASKPVDVVVSDVRMPGMDGLQVLAEVARGWPDVPVILLTAHGTVPLAVEAMKAGAADFVLKPFDREEILFTVRKALLRAQG

Tests used:
[1] = target: CrdS6 (Myxococcus xanthus (strain DZ2 genomic DNA)); assay: other fluorescence titration
[2] = target: CrdS6 (Myxococcus xanthus (strain DZ2 genomic DNA)); assay: ITC
[3] = target: T. maritima HK853 (T. maritima) (UniProt Q9WZV7); assay: ITC
[4] = target: FrgB (Myxococcus xanthus (strain DZ2 genomic DNA)) (UniProt Q9RF10); assay: ITC
FrgB = target: T1, FrgB; assay: ITC
HK1190 = target: T2, HK1190; assay: ITC
T. maritima HK853 = target: T3, T. maritima HK853; assay: ITC
CrdA [5] = target: T4, CrdA; assay: other fluorescence titration
CrdA [6] = target: T4, CrdA; assay: ITC
T. maritima RR468 = target: B1; assay: ITC
FrgC = target: B3; assay: ITC
NtrC1189 = target: B2; assay: ITC

| Kd (FrgB) [µM] | Kd (HK1190) [µM] | Kd (T. maritima HK853) [µM] | Kd (NtrC1189) [nM] | Molecule | also measured |
| --- | --- | --- | --- | --- | --- |
| – | – | – | – | CrdA (from UniProt Q84I63 1-498) (domain or fragment) | Kd [1]: > 200 µM; Kd [2]: > 75 µM; Kd [3]: > 75 µM; Kd [4]: > 75 µM |
| > 75 | > 55 | 1.16 | – | B1 | – |
| > 75 | 1.23 | > 55 | – | B2 | – |
| – | – | – | > 75000 | CrdS (domain or fragment) RLMASERIAAWQEVARRLAHEIKNPLTPIRMSLETLQAAQEAKHPRFQDMFKESAGVVLEEVDRLRRIVDEFSHFARMPKPQLAPVDLGELAQSVLALYATPPTGIQILPTLQTGVVARVDRDQLTQVLVNLVKNAEEAMASTGGTLRVRVRSTEADAIVEVEDSGPGIPLEHRARIFEPYFTTKDGGTGLGLAIASRILQEHGGKLEVGGEPGHGARFSLVLPRAA | Kd (CrdA [5]): 2280 ± 660 nM; Kd (CrdA [6]): 1410 nM; Kd (T. maritima RR468): > 75 µM; Kd (FrgC): > 75 µM |
| – | – | – | 2090 | CrdS6 (domain or fragment) RLMASERIAAWQEVARRLAHEIKNPLTAIRLSLARLQAAQEAKHPRFQDMFKESAGVVLEEVDRLRRIVDEFSHFARMPKPQLAPVDLGELAQSVLALYATPPTGIQILPTLQTGVVARVDRDQLTQVLVNLVKNAEEAMASTGGTLRVRVRSTEADAIVEVEDSGPGIPLEHRARIFEPYFTTKDGGTGLGLAIASRILQEHGGKLEVGGEPGHGARFSLVLPRAA | – |
| 1.23 | > 35 | > 55 | – | B3 | – |
